The record followed here is patent US20210347891A1.

The target in assay [1] is single chain FcRn-β2m-his (human scFcRn, Acro Biosystems Cat. No. FCM-H5286) (human) (UniProt P55899). The experiment in a line: FACS of E. coli spheroplasts displaying the IgG, 10 nM scFcRn-FITC at pH 5.8.
The target in assay [2] is dimeric human FcRn-β2m-GST (human) (UniProt P55899). Description: FACS of E. coli spheroplasts displaying the IgG, 50 nM dFcRn-GST-APC at pH 7.4.
Assay [3] deals with single chain FcRn-β2m-his (human scFcRn, Acro Biosystems Cat. No. FCM-H5286) (human) (UniProt P55899). The experiment in a line: SPR, antibody on CM5 chip, scFcRn 400-25 nM, pH 5.8 PBS. (In SPR one partner is held on a chip, and binding of the other changes the refractive index at the surface.)
For assay [4] the target is unchanged. The experiment in a line: SPR, antibody on CM5 chip, scFcRn, pH 5.8.
Assay [5] shares this target. Description: SPR, antibody on CM5 chip, scFcRn 400-25 nM, pH 5.8 PBS, 1:1 Langmuir.
The next assay deals with C1q (UniProt P02745). The experiment in a line: SPR, antibody on CM5 chip, C1q injected, pH 7.4 HBS-EP.
Sequence of C1q (P02745 23-245 limits assumed, chain 1 of 3): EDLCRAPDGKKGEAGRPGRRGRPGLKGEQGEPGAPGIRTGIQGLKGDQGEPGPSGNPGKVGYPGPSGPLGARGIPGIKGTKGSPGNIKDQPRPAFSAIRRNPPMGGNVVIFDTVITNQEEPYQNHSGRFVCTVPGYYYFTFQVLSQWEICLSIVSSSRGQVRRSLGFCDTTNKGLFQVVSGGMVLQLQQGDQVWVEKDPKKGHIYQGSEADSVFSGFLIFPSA
Sequence of C1q (P02746 28-253 limits assumed, chain 2 of 3, further chain): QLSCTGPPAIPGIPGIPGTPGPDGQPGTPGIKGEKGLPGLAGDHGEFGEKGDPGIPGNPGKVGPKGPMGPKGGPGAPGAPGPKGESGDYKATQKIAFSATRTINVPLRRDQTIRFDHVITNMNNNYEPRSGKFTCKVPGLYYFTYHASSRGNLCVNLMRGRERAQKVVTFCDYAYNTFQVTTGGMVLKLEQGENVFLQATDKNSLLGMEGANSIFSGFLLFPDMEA
Sequence of C1q (P02747 29-245 limits assumed, chain 3 of 3, further chain): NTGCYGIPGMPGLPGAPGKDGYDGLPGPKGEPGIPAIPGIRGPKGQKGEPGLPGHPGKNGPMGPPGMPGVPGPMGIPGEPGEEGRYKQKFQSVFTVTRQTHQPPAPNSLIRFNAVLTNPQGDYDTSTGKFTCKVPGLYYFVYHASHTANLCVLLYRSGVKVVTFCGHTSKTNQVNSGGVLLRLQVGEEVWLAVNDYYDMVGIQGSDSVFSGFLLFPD
Assay [6] concerns the target dimeric FcγRIIIa-F158-GST (human) (human) (UniProt P08637). The experiment in a line: SPR, antibody on CM5 chip, receptor injected, pH 7.4 HBS-EP.
Assay [7] addresses dimeric FcγRIIa-H131-GST (human) (human) (UniProt P12318). Described as above.
The target in assay [8] is dimeric FcγRIIa-R131-GST (human) (human) (UniProt P12318). Described as above.
Sequence of dimeric FcγRIIa-R131-GST (human) (human) (P12318 34-218 H167R limits assumed): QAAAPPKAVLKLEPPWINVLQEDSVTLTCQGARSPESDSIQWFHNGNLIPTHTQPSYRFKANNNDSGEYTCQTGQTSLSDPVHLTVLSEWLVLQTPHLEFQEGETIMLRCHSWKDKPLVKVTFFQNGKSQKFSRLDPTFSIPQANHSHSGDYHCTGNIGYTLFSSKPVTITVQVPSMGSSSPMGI
For assay [9], the target named is dimeric FcγRIIb-GST (human) (human) (UniProt P31994). The assay is described as above.
Sequence of dimeric FcγRIIb-GST (human) (human) (P31994 43-217 limits assumed): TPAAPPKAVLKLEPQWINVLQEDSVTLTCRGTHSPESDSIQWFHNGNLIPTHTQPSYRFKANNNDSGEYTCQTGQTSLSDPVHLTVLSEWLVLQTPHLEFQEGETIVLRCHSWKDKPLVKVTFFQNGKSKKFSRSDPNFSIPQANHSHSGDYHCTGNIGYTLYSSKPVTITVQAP
In assay [10] the target is monomeric FcγRI-His (human) (human) (UniProt P12314). Described as above.
Sequence of monomeric FcγRI-His (human) (human) (P12314 16-288 limits assumed): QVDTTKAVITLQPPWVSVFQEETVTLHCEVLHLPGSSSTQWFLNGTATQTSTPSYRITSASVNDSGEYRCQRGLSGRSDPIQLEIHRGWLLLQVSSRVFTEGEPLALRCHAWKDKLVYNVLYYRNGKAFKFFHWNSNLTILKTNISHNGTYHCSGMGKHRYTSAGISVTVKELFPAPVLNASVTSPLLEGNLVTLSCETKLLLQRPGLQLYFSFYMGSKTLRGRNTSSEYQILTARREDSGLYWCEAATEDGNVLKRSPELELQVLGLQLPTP
Assay [11] concerns the target single chain FcRn-β2m-his (human scFcRn, Acro Biosystems Cat. No. FCM-H5286) (human) (UniProt P55899). Description: SPR, antibody on CM5 chip, FcRn/β2m injected, pH 5.8 (same values as Table 5).
Assay [12] shares this target. Description: SPR at pH 7.4 PBS, scFcRn on CM5 chip at high density (4000 RU), antibody 400-25 nM injected.
Assay [13] has the same target. The experiment in a line: SPR at pH 7.4 PBS, scFcRn on CM5 chip at medium density (2000 RU), antibody 400-25 nM injected.
The target in assay [14] is dimeric FcγRIIb-GST (human) (human) (UniProt P31994). Description: ELISA: antibody coated, serially diluted GST-FcγRIIb (the concentration is that of the receptor), anti-GST HRP. Background: ELISA stands for enzyme-linked immunosorbent assay.
Assay [15] concerns the target dimeric FcγRIIa-R131-GST (human) (human) (UniProt P12318). Description: ELISA: antibody coated, serially diluted GST-FcγRIIaR131 (the concentration is that of the receptor), anti-GST HRP.
The target in assay [16] is dimeric human FcRn-β2m-GST (human) (UniProt P55899). The experiment in a line: ELISA at pH 7.4: antibody coated, serially diluted dFcRn (the concentration is that of dFcRn), anti-GST HRP.

Sequence of dimeric FcγRIIa-H131-GST (human) (human) (P12318 34-218 limits assumed): as the sequence (P12318 34-218 H167R limits assumed) above, with R134H counted along it
Sequence of dimeric human FcRn-β2m-GST (human) (P55899 other isoform, or with tags, fused parts or gaps limits assumed): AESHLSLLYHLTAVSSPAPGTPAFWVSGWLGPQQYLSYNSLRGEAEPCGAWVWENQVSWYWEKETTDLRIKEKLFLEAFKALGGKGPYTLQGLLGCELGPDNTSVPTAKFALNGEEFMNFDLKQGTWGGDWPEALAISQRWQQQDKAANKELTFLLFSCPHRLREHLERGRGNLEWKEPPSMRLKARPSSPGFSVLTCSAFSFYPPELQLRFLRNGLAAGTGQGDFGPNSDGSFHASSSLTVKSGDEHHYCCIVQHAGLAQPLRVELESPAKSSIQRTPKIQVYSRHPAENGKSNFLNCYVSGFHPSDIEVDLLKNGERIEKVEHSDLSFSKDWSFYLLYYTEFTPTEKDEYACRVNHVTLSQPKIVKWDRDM
Sequence of single chain FcRn-β2m-his (human scFcRn, Acro Biosystems Cat. No. FCM-H5286) (human) (P55899 other isoform, or with tags, fused parts or gaps): as the sequence (P55899 other isoform, or with tags, fused parts or gaps limits assumed) above
Sequence of dimeric FcγRIIIa-F158-GST (human) (human) (P08637 17-208 limits assumed): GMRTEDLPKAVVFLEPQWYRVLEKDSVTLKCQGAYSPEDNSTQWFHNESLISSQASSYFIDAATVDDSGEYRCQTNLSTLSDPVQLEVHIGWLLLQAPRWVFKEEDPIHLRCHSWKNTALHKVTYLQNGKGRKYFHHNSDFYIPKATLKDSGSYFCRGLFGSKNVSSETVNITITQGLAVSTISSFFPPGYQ
Sequence of Herceptin-IgG4 (wild type IgG4 with the Fab of trastuzumab) (antibody) (Fc): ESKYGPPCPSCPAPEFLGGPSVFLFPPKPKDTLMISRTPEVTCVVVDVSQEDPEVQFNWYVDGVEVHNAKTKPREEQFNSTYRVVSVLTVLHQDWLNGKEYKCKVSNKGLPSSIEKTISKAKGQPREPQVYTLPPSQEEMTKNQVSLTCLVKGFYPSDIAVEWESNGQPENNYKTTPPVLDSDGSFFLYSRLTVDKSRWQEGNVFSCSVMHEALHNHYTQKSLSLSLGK

With M428L/N434S (antibody), the figures for the M (mean fluorescence intensity) in assay [1] and in [2] were 152 and 83.3, respectively.
What is called Kd is the concentration at which binding is half-saturated. In the case of “Herceptin-IgG4 (wild type IgG4 with the Fab of trastuzumab) (antibody)”, the dissociation constant Kd in assay [3] is 2460 nM.
A word on the koff: it is a measure of how fast the partners let go of each other. Low readings indicate a long-lived complex, high ones a short-lived complex. The term kon denotes the second-order rate constant of association. As to “Herceptin-EDHY (V264E, L309D, Q311H, N434Y) (antibody)”, the fold enhanced affinity than Herceptin in [4] is 19.6 fold. In assay [5], this substance registered a dissociation constant Kd of 28 nM, a koff of 0.038 s⁻¹ and a kon of 1.4e+06 M⁻¹ s⁻¹.
Regarding “Herceptin-EDH (V264E, L309D, Q311H) (antibody)”, in [5], the Kd was determined as 487 nM, the koff came out at 0.23 s⁻¹ and the kon was 465000 M⁻¹ s⁻¹.
As to “TEDHY (A231T, V264E, L309D, Q311H, and N434Y), IgG displayed on E. coli spheroplasts (antibody)”, the figures for the M (mean fluorescence intensity) in [1] and in assay [2] were 231 and 237, respectively.
Taken in the same sequence, the figures for “EDHY (V264E, L309D, Q311H, and N434Y), IgG displayed on E. coli spheroplasts (antibody)” were 265 and 379.
In the same order, the values of “EDHS (V264E, L309D, Q311H, and N434S), IgG displayed on E. coli spheroplasts (antibody)” are 239 and 60.3.
As for “Herceptin-EDHS (V264E, L309D, Q311H, N434S) (antibody)”, the fold enhanced affinity than Herceptin in assay [4] was 5.9 fold. In [5], the Kd is 93 nM, the koff came out at 0.11 s⁻¹ and the kon is 1.2e+06 M⁻¹ s⁻¹.
With “EDH (V264E, L309D, and Q311H), IgG displayed on E. coli spheroplasts (antibody)”, the M (mean fluorescence intensity) in assay [1] came to 135; in assay [2], 20.4.
Consider “Herceptin-YTE (M252Y/S254T/T256E) (antibody)”, for which the Kd in the assay with C1q worked out at 42 nM; in [6], 4410 nM; in assay [7], 620 nM; in assay [8], 3200 nM; in assay [9], 6240 nM; in assay [10], 0.29 nM. Also, the dissociation constant (Kd) was determined as 23 nM in assay [5], 23 nM in assay [11], 4290 nM in assay [12] and 4730 nM in assay [13].
In general, EC50 (read off the curve) refers to the concentration that produces a half-maximal response. “Herceptin-DHS (L309D; Q311H; N434S) (antibody)”: the Kd with C1q is 25 nM; in [6], 480 nM; in assay [7], 270 nM; in assay [8], 950 nM; in [9] it was 2910 nM; in [10], 0.28 nM. The Kd in assay [5] came to 111 nM; in assay [11] it was 110 nM. Also, the EC50 (read off the curve) in [14] turned out to be 4 nM; in assay [15], 7 nM.
With Herceptin-LS (M428L/N434S) (antibody), the Kd with C1q amounted to 16 nM; in assay [7], 410 nM; in assay [8], 1210 nM; in [9], 2250 nM; in assay [10], 0.58 nM; in assay [5] it was 55 nM. The Kd in assay [11] is 55 nM; in assay [12] it was 22.7 nM; in assay [13], 58.7 nM. Besides, the EC50 (read off the curve) in [16] was 10 nM.
